Laboratory results reported in patent US20250262210A1 (TRUSTEES OF COLUMBIA UNIVERSITY IN THE CITY OF NEW YORK, published 2025).

Legend:
Assay in all cases: IP/MS, LZTR1 wild type-FLAG, U87
HELZ = HELZ (human, UniProt P42694 1-1942, limits assumed)
In short: (§1)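 Read-out: spectral counts from LC-MS/MS (Orbitrap Fusion) after MaxQuant identification. Variable modifications were Met oxidation, protein N-terminal acetylation and N/Q deamidation.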

CDK5RAP2 = CDK5RAP2 (human, UniProt Q96SN8 1-1893, limits assumed)
In short: as §1

HERC2 = HERC2 (human, UniProt O95714 1-4834)
In short: as §1

CTDP1 = target: T1, CTDP1 (human, UniProt Q9Y5B0 1-961, limits assumed)
T1 sequence (looked up): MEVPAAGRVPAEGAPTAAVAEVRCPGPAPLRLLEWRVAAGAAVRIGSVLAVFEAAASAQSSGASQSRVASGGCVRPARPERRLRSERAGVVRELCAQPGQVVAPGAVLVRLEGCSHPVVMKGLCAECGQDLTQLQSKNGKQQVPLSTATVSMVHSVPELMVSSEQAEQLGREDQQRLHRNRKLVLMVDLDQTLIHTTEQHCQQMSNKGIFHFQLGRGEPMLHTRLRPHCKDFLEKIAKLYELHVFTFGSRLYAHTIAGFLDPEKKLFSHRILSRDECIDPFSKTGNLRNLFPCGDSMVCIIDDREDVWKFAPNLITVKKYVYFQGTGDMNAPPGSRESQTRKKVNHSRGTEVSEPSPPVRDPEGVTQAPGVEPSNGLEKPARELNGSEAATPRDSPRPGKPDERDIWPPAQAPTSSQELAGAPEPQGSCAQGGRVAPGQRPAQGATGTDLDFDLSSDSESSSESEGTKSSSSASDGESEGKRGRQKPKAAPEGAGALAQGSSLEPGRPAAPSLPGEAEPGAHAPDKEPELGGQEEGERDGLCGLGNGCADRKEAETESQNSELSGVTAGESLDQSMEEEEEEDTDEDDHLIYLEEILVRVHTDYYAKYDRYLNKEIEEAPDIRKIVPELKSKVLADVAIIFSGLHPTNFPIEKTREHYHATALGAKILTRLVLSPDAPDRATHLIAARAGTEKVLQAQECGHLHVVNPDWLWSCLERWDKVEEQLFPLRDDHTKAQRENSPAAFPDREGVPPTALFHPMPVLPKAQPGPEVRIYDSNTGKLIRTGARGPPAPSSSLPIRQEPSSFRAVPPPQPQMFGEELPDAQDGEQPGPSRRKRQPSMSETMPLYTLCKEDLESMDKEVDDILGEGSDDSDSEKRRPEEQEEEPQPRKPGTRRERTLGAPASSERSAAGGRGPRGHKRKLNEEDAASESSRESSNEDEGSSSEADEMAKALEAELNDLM
In short: as §1

BUB1 = BUB1 (human, UniProt O43683 1-1085, limits assumed)
In short: as §1

VPS18 = target: T2, VPS18 (human, UniProt Q9P253 2-973)
T2 sequence (looked up): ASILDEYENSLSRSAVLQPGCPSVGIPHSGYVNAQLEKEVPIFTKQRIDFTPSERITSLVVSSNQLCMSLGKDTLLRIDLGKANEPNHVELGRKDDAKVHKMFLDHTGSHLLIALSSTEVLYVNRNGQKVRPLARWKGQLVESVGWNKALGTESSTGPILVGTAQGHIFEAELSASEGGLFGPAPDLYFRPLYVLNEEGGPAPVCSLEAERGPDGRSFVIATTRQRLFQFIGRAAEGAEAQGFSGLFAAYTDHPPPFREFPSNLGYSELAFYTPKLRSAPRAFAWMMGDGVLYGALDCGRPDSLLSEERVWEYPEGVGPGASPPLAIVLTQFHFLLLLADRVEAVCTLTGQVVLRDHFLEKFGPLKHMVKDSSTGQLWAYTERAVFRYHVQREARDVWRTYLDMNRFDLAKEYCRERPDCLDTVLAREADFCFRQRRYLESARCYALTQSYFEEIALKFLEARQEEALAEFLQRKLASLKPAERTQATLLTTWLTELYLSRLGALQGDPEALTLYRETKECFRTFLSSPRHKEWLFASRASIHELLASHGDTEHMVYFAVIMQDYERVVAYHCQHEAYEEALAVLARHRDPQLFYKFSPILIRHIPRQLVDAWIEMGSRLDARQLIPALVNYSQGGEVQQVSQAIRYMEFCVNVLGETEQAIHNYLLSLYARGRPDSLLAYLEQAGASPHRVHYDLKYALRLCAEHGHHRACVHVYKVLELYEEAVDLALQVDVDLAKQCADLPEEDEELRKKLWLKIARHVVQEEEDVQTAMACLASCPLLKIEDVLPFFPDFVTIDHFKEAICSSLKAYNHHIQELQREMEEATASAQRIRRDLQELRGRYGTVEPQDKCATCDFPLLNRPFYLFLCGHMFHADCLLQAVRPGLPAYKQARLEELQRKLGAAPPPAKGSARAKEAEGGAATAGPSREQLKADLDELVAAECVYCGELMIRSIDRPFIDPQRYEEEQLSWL
In short: as §1

Sequence of CDK5RAP2 (Q96SN8 whole entry): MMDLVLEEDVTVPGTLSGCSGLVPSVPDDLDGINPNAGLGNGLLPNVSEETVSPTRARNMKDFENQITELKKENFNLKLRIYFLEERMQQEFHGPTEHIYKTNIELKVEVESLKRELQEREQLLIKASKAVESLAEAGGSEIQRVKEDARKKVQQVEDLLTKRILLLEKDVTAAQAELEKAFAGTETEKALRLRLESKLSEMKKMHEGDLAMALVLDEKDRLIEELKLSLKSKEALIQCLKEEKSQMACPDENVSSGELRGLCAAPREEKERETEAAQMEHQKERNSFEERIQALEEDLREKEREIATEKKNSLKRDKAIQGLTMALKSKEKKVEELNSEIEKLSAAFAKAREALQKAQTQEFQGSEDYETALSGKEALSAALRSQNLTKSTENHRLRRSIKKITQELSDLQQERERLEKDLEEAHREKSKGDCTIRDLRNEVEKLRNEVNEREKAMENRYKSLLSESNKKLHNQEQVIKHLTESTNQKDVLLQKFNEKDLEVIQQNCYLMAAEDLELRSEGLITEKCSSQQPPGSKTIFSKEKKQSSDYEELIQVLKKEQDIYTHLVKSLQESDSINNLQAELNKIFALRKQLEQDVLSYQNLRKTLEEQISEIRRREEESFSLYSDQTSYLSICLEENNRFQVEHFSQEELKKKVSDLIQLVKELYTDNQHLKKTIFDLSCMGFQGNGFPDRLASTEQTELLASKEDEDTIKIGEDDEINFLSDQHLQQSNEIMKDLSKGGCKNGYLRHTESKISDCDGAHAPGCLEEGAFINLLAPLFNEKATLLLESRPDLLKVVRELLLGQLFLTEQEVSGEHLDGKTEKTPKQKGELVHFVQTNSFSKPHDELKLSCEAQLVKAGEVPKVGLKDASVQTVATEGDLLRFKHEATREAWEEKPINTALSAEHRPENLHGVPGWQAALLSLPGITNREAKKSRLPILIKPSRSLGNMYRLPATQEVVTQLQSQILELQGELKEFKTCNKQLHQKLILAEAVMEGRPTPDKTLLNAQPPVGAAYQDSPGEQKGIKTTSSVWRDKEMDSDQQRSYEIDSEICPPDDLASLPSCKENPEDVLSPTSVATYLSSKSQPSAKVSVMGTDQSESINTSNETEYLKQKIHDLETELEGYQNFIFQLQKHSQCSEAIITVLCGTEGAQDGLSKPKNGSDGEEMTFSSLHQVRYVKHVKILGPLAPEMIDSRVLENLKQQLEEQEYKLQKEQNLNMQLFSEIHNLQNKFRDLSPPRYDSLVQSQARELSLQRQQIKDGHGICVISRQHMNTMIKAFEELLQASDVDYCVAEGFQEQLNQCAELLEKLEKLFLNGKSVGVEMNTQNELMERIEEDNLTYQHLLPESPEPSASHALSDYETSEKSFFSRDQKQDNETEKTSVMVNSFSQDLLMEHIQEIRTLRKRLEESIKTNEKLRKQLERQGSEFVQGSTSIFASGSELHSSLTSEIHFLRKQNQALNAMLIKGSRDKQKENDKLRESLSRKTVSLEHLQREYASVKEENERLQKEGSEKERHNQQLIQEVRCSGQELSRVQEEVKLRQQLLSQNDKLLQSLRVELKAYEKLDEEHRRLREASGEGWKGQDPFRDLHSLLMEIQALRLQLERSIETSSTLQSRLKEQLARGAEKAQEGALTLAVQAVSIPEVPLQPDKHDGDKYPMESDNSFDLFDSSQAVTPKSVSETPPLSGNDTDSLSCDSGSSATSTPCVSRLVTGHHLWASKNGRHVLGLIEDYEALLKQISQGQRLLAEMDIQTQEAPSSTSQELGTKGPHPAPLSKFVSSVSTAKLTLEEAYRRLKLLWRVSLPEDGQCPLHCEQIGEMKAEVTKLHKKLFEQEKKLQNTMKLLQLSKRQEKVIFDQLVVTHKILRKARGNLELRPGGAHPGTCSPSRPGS
Sequence of BUB1 (O43683 whole entry): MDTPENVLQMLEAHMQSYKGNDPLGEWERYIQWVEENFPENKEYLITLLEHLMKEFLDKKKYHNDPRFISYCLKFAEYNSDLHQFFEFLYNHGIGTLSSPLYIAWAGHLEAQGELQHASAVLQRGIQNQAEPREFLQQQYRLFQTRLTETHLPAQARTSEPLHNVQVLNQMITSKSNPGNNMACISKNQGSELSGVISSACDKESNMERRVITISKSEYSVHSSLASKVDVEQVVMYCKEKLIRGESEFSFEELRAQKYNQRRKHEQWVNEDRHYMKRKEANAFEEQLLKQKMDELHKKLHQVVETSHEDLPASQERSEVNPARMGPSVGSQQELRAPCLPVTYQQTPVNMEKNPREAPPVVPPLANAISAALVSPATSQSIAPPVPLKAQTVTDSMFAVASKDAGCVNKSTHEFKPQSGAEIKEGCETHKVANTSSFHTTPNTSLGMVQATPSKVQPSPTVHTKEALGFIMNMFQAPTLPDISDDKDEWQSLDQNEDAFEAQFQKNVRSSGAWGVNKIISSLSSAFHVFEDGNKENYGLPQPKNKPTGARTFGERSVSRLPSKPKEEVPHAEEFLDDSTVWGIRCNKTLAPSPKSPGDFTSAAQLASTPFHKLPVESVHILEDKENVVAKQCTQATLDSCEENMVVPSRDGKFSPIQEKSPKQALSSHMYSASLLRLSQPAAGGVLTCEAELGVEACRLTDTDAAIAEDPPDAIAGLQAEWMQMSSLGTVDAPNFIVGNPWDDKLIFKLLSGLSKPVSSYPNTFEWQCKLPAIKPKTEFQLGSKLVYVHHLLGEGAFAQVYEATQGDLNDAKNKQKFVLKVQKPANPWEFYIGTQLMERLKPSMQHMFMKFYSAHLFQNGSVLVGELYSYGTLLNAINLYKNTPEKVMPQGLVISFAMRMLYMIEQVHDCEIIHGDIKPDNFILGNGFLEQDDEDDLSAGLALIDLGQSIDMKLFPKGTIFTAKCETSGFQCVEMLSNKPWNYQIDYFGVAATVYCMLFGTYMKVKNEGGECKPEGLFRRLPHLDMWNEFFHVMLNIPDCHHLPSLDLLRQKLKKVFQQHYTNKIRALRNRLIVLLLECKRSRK
Sequence of HELZ (P42694 whole entry, the tested form may be a part): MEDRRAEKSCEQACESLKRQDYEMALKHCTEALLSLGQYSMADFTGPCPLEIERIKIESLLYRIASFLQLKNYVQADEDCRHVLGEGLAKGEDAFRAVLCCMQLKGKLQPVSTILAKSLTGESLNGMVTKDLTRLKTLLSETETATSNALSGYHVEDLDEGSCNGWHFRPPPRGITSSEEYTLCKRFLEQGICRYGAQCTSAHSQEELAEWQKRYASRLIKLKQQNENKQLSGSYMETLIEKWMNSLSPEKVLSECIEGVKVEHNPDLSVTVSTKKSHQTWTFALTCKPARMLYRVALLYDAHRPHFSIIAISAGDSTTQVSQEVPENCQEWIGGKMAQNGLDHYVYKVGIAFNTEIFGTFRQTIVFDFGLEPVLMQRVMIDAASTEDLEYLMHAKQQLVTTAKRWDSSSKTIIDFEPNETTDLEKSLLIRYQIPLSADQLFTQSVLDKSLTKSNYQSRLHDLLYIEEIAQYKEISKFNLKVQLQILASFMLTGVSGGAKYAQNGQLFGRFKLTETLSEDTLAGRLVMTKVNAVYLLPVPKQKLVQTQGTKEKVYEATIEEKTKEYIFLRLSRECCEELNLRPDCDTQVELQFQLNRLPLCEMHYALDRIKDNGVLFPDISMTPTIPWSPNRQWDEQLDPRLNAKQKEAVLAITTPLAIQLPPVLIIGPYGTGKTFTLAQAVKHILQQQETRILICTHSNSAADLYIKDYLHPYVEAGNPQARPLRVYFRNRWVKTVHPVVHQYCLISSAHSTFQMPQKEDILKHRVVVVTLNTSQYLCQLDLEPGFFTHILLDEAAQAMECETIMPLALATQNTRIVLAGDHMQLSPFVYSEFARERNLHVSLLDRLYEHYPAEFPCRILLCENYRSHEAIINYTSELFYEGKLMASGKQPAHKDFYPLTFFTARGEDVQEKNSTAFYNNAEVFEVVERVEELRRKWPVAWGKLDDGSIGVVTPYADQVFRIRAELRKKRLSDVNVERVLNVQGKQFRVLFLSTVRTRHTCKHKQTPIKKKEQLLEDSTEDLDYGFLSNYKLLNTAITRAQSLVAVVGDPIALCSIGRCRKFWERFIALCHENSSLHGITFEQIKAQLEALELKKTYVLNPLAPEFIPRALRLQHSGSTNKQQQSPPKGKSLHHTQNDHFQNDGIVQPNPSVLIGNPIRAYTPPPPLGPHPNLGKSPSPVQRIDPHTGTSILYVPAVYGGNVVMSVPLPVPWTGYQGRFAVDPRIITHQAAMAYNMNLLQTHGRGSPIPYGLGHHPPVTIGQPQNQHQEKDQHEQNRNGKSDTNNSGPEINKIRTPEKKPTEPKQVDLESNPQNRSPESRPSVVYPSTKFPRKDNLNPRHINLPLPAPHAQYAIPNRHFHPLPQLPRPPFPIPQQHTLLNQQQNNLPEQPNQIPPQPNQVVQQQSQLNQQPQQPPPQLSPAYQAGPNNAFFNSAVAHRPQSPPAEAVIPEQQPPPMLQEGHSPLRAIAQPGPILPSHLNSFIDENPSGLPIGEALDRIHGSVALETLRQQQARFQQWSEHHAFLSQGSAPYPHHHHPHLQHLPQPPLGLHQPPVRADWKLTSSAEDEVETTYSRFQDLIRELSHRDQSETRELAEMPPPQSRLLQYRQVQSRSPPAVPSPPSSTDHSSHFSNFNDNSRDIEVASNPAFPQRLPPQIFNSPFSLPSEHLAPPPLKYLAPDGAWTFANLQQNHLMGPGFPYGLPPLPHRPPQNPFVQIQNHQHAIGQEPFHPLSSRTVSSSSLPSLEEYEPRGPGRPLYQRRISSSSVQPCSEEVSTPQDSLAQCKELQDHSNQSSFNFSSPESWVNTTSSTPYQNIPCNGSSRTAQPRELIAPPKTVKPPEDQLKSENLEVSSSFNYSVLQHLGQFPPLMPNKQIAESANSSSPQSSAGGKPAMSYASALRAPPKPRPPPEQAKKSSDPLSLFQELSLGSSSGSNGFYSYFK

binding result (HELZ): binds
binding result (CDK5RAP2): binds
binding result (HERC2): binds
binding result (CTDP1): binds
binding result (BUB1): binds
binding result (VPS18): binds
B1: LZTR1-FLAG (other, human, UniProt Q8N653 1-840, looked up)
chain: MAGPGSTGGQIGAAALAGGARSKVAPSVDFDHSCSDSVEYLTLNFGPFETVHRWRRLPPCDEFVGARRSKHTVVAYKDAIYVFGGDNGKTMLNDLLRFDVKDCSWCRAFTTGTPPAPRYHHSAVVYGSSMFVFGGYTGDIYSNSNLKNKNDLFEYKFATGQWTEWKIEGRLPVARSAHGATVYSDKLWIFAGYDGNARLNDMWTIGLQDRELTCWEEVAQSGEIPPSCCNFPVAVCRDKMFVFSGQSGAKITNNLFQFEFKDKTWTRIPTEHLLRGSPPPPQRRYGHTMVAFDRHLYVFGGAADNTLPNELHCYDVDFQTWEVVQPSSDSEVGGAEVPERACASEEVPTLTYEERVGFKKSRDVFGLDFGTTSAKQPTQPASELPSGRLFHAAAVISDAMYIFGGTVDNNIRSGEMYRFQFSCYPKCTLHEDYGRLWESRQFCDVEFVLGEKEECVQGHVAIVTARSRWLRRKITQARERLAQKLEQEAAPVPREAPGVAAGGARPPLLHVAIREAEARPFEVLMQFLYTDKIKYPRKGHVEDVLLIMDVYKLALSFQLCRLEQLCRQYIEASVDLQNVLVVCESAARLQLSQLKEHCLNFVVKESHFNQVIMMKEFERLSSPLIVEIVRRKQQPPPRTPLDQPVDIGTSLIQDMKAYLEGAGAEFCDITLLLDGHPRPAHKAILAARSSYFEAMFRSFMPEDGQVNISIGEMVPSRQAFESMLRYIYYGEVNMPPEDSLYLFAAPYYYGFYNNRLQAYCKQNLEMNVTVQNVLQILEAADKTQALDMKRHCLHIIVHQFTKVSKLPTLRSLSQQLLLDIIDSLASHISDKQCAELGADI
notes: Expressed in HEK 293T, HeLa or U87 cells; used as cell lysate; also called LZTR1 wild type-FLAG; LZTR1 WT; not shown: FLAG tag at the C-terminus
